Assay: yeast display, Sf9 membrane polyspecificity reagent, FACS + sequencing; frameworks hold sequencing errors
Summary of the method: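 Nanobodies from a synthetic yeast display library (Saccharomyces cerevisiae BJ5465), induced 36–48 hours with galactose, were stained 1 hour at 4 °C with 10% biotinylated, detergent-solubilized Sf9 membrane reagent, enriched on streptavidin microbeads, then FACS-sorted. Anti-HA (expression) and streptavidin (reagent binding) fluorescence set low and high (top ~1%) gates. Polyreactivity labels come from the gate of origin. Genes were colony-PCR amplified, MiSeq 2 × 250 sequenced and filtered by CDR length.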

| Sequence | polyreactivity (PSR sort gate) |
| --- | --- |
| QVQLVESGGGLVQAGGSLRLSCAASGSIFNRYAMGWYRQAPGKERELVAVIRWRDGSTYYADSVKGRFTISRDNAKNTVYLQMNSLKPEDTAVYYCAAVYWGEEYEYWGQGTQVTVSS | low polyreactivity |
| QVQLVESGGGLVQAGGSLRLSCAASGSIFNRYAMRWYRQAPGKERALVAAISRSGSTYYADSVKGRFTISRDNAKNTVYLQMNSLKPEDTAVYYCNARGTTHHTSYDYWGQGTQVTVSS | low polyreactivity |
| QVQLVESGGGLVQAGGSLRLSCAASGSIFNSNAMGWYRQAPGKERELVAAITGSGGRTYYADSVKGRFTISRDNAKNTVYLQMNSLKPEDTAVYYCNAVTYSRRYAYYYWGQGTQVTVSS | high polyreactivity |
| QVQLVESGGGLVQAGGSLRLSCAASGSIFNSYAMGWYRQAPGKERELVAAISIRGTRTYYADSVKGRFTISRDNAKNTVYLQMNSLKPEDTAVYYCAADASYTEGMDYWGQGTQVTVSS | high polyreactivity |
| QVQLVESGGGLVQAGGSLRLSCAASGSIFNTYAMGWYRQAPGKEREFVASISRSGGSTRYADSVKGRFTISRDNAKNTVYLQMNSLIPEDTAVYYCAASWLGASGIRYDYWGQGTQVTVSS | high polyreactivity |
| QVQLVESGGGLVQAGGSLRLSCAASGSIFNTYVMGWYTQAPGKERELVAAITSSGGRTYYADSVKGRFTISRDNAKNTVYLQMNSLNPEDTAVYYCNTAQRWVGRNDYWGQGTQVTVSS | high polyreactivity |
| QVQLVESGGGLVQAGGSLRLSCAASGSIFNVYVMGWYRQAPGKERELVASITWTTGSTYADSVKGRFTISRDNAKNSVYFQMNSLKPEDTAVYYCNAEFPEDTSDDYWGQGTQVNVSS | low polyreactivity |
| QVQLVESGGGLVQAGGSLRLSCAASGSIFNYNAMGWYRQAPGKERELVAAMSGSGGRTYYADSVKGRFTISRDNAKYTVYLQMNSLKPEDTAVYYCATYVRITPYEYWGQGTQVTVSS | high polyreactivity |
| QVQLVESGGGLVQAGGSLRLSCAASGSIFNYYAMGWSRQAPGKERELVAAITTSGGNTYYADSVKGRFTISRDNAKNNVYLQMNILKPEDTAVYYCNADYRQITSYGFDYWGQGSQVTVSS | low polyreactivity |
| QVQLVESGGGLVQAGGSLRLSCAASGSIFNYYAMGWYRPAPGKERELVAGITTSGGSTYYADSVKGRFTISRDNAKNTVYLQMNSLKPEDTAVYYCAAYDYISSTYFLDDYWGQGTQVTVSS | low polyreactivity |
| QVQLVESGGGLVQAGGSLRLSCAASGSIFNYYAMGWYRQAPGKEREFVADISGSGSSTYYADSVKGRFTISRDNAKNTVYLQMNSLKPEDTAVYYCNAEYYWGVGYYPYSDYGYWGQGTQVTVSS | low polyreactivity |
| QVQLVESGGGLVQAGGSLRLSCAASGSIFNYYAMGWYRQAPGKERELVAAISWNGGRTYYADSVKGRFTISRDNAKNTVYLQMNSLKPEDTAVYYCNAYPAGYVAHTYDYWGQGTQVTVSS | high polyreactivity |
| QVQLVESGGGLVQAGGSLRLSCAASGSIFNYYAMGWYRQAPGKERELVAGITSVGSTYYADSVKGRFTISRDNAKNTVYLQMNSLKPEDTAVYYCAAGYWYGMYYWGQGTQVTVSS | high polyreactivity |
| QVQLVESGGGLVQAGGSLRLSCAASGSIFNYYAMGWYRQAPGKESELVAGITTSGGSTYYADSVKGRFTISRDNAKNTVYLQMNSLKPEDTAVYYCAAYDYISSTYFLYDYWGQGTQVTVSS | low polyreactivity |
| QVQLVESGGGLVQAGGSLRLSCAASGSIFNYYTMGWYRQAPGKRELVAAITWSGDSTYYADSVKGRFTISRDNAKNTVYLQMNSLKPEDTAVYYCAAAQARRYYWGQGTQVTVSS | high polyreactivity |
| QVQLVESGGGLVQAGGSLRLSCAASGSIFPAYAMGWYRQAPGKERELVAAITRGGSTDYADSVKGRFTISRDNAKNTVYLQMNSLKPEDTAVYYCATGDGPSLFDYWGQGTQVTVSS | low polyreactivity |

| Sequence | polyreactivity (PSR sort gate) |
| --- | --- |
| QVQLVESGGGLVQAGGSLRLSCAASGSIFPDNAMGRYRQAAGKVRELVAAIDKGTGSTNYADSVKGRFTISRDNAKNSVYLQINSVKPEDTAGYYCDKGWLSPRGGAWYDDYWGQGTEVTVSS | low polyreactivity |
| QVQLVESGGGLVQAGGSLRLSCAASGSIFPDNAMGWDRQAPGKERELVAAITSGGGTYYADSVKGRFTISRDNAKNTVYLQMNSLKPEDTAVYYCNTEDYTQYEPGYYPPNYYWGQGTQVTVSS | low polyreactivity |
| QVQLVESGGGLVQAGGSLRLSCAASGSIFPDNAMGWYRQAPGKERELVAAITRGGSTYYADSVKGRFTISRDNAKNTVYLQMNSLKPEDTAVYYCAARRRYLWSYDYWGQGTQVTVSS | high polyreactivity |
| QVQLVESGGGLVQAGGSLRLSCAASGSIFPDNAMRWYRQAPGKERELVAAITRGGSTYYADSVKGRFTISRDNAKNTVYLQMNSLKPEDTAVYYCAARRRYLWSYDYWGQGTQVTVSS | high polyreactivity |
| QVQLVESGGGLVQAGGSLRLSCAASGSIFPDYAMGGYRQAPGKERELVAAITWSGGNTYYADSVKGRFTISRDNAKNTVYLQMNSLKPEDTAVYYCAADISLHWYYYRRYNYWGQGTQVTVSS | low polyreactivity |
| QVQLVESGGGLVQAGGSLRLSCAASGSIFPENVMGWYRQAPGKERELVAAISWSGGSTYYADSVKGRFTISRDNAKNTVYLQMNSLKPEVTAVYYCNRVPSWRIDYDYWGQGTQVTVSS | low polyreactivity |
| QVQLVESGGGLVQAGGSLRLSCAASGSIFPGNGMGWYRQAPGKEMELVASITSGARTNYADSVKGRFTISRDNAKNTVYFPMNSLIPEDTAVYYCAADIKSSIRRAYDYWGQGSQVTVSS | high polyreactivity |
| QVQLVESGGGLVQAGGSLRLSCAASGSIFPGYAMGWYRQAPGKERELVAAITFSGGSTYYADSVKGRFTISRDNAKNTVYLLMISLKPEDTAVYYCAAPGWYGGYPSFYYWGQGTQVTVSS | low polyreactivity |
| QVQLVESGGGLVQAGGSLRLSCAASGSIFPGYAMGWYRQAPGKERELVATITWSGGSTYYADSVKGRFTISRDNAKNTVYLQMNSLKPEDTAVYYCAADGVDRYLRTISYLYGYWGQGTQVTVSS | low polyreactivity |
| QVQLVESGGGLVQAGGSLRLSCAASGSIFPGYAMGWYRQAPGKERELVATITWSGGSTYYADSVKGRFTISRDNAMNTVYLQMNSLKPEDTAVYYCNADSNWYYQLNYYGLYDYWGQGTQVTVSS | low polyreactivity |
| QVQLVESGGGLVQAGGSLRLSCAASGSIFPGYAMGWYRQAPGKERELVATITYSDGSTYYADSVKRRFTISRDIATNTVFLQMNSLKPEDTAGYYCAVTYWWYYGYDYWGQGTQVTVSS | low polyreactivity |
| QVQLVESGGGLVQAGGSLRLSCAASGSIFPHNAMGWYRQAPGKERELVAAISWRDVITYYADSVKGRFTISRDNAKNTVYLQMNSLKPEDTAVYYCAAELRVYGVDYEYWGQGTQVTVSS | high polyreactivity |
| QVQLVESGGGLVQAGGSLRLSCAASGSIFPHYAMGWNRQAPGKERELVAAISSGGRTYYADSVKGRFTISRDNAKNTVYLQMNSLKPEDTAVYYCAARRIARKGYGYWGQGTQVTVSS | high polyreactivity |
| QVQLVESGGGLVQAGGSLRLSCAASGSIFPIYAMGWYRQAPGKERELVAAINRSGGSTYYADSGKGRFTISRDHAKTTVYLQMNSLKPEETAVYDCNADYGYHNQLFRGYYGWSSDHWGQGTQVTVSS | low polyreactivity |
| QVQLVESGGGLVQAGGSLRLSCAASGSIFPLYAMGWYRQAPGKERELVADITVSGGSTYYADSVKGRFTISRDNAKNTVYLQMNSLKPEDTAVYYCAKDNGPWFAYDYWGQGTQVTVSS | low polyreactivity |
| QVQLVESGGGLVQAGGSLRLSCAASGSIFPQYAMGWYRQAPGKERELVAAITWSGSRTRYADSVKGRFTISRDNAKNTVYLQMNSLKPEDTAVYYCNAVNYRSSRDSGYWGQGTQVTVSS | high polyreactivity |

From the nanobody polyreactivity screen of Harvey et al. (2022)
